Assay results as given in publication doi:10.1101/775726, “How the dual PDZ domain from Postsynaptic density protein 95 clusters ion channels and receptors” (bioRxiv, 2019).

Experiments:
Assay in all cases: ITC; 5 mM RRESEI in the syringe, PDZ1-2, PDZ1 or PDZ2 in the cell at nominal 0.13 mM; 25°C; 20 mM Tris-HCl, 150 mM NaCl, pH8.5; MicroCal VP-ITC; PDZ1-2 fitted assuming a single class of sites
Details in all cases: both partners purified
[1] = target: T1, PSD-95 PDZ1 domain (residues 55-152) (human, UniProt P78352 55-152)
T1 construct: Gly-Pro left at the N-terminus after HRV 3C cleavage of the tag; PSD-95, human, PDZ1, residues 55-152 of UniProt P78352 [98-195 of P78352-2]; Vector pOPINF; source: E. coli BL21(DE3), purified (Ni-NTA, HRV 3C tag cleavage, negative Ni-NTA, Superdex200 SEC); not shown: His6, N-terminal, cleaved
T1 sequence (P78352 other isoform, or with tags, fused parts or gaps): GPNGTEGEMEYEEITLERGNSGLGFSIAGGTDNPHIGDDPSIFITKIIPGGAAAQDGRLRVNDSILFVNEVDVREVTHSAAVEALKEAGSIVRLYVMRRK

[2] = target: T2, PSD-95 PDZ1-2 dual domain (residues 55-249) (human, UniProt P78352 55-249)
T2 construct: PSD-95 (Disks large homologue 4, SAP-90), human, residues 55-249 of UniProt P78352 [98-292 of P78352-2]; PDZ1, 8-residue linker, PDZ2; cleaved construct 20.8 kDa; ends printed as NGT- and -SNA; Vector pOPINF; SASBDB entries: apo SASDGE5, SASDGF5, SASDGG5; with GSH SASDGH5, SASDGJ5, SASDGK5; also called apo:PDZ1-2; dual PDZ domain; source: E. coli BL21(DE3), purified (Ni-NTA, HRV 3C tag cleavage, …)
T2 sequence (P78352 other isoform, or with tags, fused parts or gaps): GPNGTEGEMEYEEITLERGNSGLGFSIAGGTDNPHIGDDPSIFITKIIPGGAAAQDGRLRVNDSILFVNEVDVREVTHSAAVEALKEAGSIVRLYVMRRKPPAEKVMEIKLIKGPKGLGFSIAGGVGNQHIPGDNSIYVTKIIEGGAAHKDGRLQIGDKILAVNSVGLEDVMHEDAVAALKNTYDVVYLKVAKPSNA

[3] = target: T3, PSD-95 PDZ2 domain (residues 154-249) (human, UniProt P78352 154-249)
T3 construct: Gly-Pro left at the N-terminus after HRV 3C cleavage of the tag; PSD-95, human, PDZ2, residues 154-249 of UniProt P78352 [197-292 of P78352-2]; Vector pOPINF; source: E. coli BL21(DE3), purified (Ni-NTA, HRV 3C tag cleavage, negative Ni-NTA, Superdex200 SEC); not shown: His6, N-terminal, cleaved
T3 sequence (P78352 other isoform, or with tags, fused parts or gaps): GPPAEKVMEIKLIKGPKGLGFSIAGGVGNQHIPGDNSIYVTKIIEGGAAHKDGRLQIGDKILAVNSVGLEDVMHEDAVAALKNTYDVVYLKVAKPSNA

B1: RRESEI peptide (last 6 residues of Kir2.1) (peptide)
peptide: RRESEI
notes: last 6 residues of the inwardly rectifying potassium channel Kir2.1 (C-terminus, type I PDZ motif ESEI); also called RRESEI ligand; ligand peptide; source: synthetic peptide, 98% purity (Peptide Protein Research Ltd.)
In the case of B1, the Kd [1] is reported as 6 ± 6 µM, the Kd [2] is reported as 90 ± 9 µM and the Kd [3] is reported as 60 ± 2 µM.
